Laboratory results taken from patent US20090136547A1, “ZWITTERIONIZATION OF CAPSULAR SACCHARIDES” (NOVARTIS VACCINES AND DIAGNOSTICS SRL, priority 2005, published 2009).
Ends that are not written are not given here. * marks the point of attachment. Palmitoyl = CCCCCCCCCCCCCCCC(=O)*

Molecular target: T1, TLR2 receptor (Homo sapiens, UniProt O60603)
T1 construct: endogenous in cells; host or cells: purified monocytes
Experiment: Monocyte activation (TNFα, CD80/MHC-II) in absence or presence of anti-TLR2 antibody
Type: cell-based
Details: FIG. 29 and FIG. 30

T1 sequence (O60603 21-784): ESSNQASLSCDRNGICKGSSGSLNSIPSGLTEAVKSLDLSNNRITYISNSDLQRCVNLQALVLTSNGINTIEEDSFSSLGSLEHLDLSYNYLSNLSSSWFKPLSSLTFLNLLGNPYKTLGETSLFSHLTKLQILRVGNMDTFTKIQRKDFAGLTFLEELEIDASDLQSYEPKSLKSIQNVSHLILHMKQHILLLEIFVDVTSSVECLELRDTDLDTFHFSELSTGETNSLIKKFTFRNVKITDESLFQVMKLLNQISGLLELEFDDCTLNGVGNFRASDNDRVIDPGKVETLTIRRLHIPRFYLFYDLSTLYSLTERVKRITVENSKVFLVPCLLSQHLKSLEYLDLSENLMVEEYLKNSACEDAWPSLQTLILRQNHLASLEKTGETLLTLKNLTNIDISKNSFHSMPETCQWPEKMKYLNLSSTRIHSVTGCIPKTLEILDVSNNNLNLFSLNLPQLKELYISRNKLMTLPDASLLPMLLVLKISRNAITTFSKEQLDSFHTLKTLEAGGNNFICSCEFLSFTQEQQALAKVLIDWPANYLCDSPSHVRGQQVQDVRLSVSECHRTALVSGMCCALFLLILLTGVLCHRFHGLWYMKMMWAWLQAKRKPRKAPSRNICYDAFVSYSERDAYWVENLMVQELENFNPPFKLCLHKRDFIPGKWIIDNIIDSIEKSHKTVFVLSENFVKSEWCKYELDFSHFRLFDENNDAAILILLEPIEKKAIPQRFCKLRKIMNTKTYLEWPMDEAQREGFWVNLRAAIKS

effect of anti-TLR2 antibody on activation (TNFα assay, CD80/MHC-II assay): able to block activation
Substance: N-palmitoyl-S-[2,3-bis(palmitoyloxy)-(2R,S)-propyl]-(R)-cysteinyl-seryl-(lysyl)(3)-lysine (Palmitoyl-C(2,3‑bis(palmitoyloxy)‑(2R,S)‑propyl)SKKKK) [PAMcsk, synthetic lipopeptide positive control]
